The results in this text go back to US20220177846A1.

Among the targets are hKCNQ1/minK (human) (UniProt P51787); hKV11.1/hERG (human) (UniProt Q12809); hNav1.5 (human) (UniProt Q14524); hCav1.2 (human) (UniProt Q13936).
Holding throughout (test): cell-based or functional assay

Chain of hKV11.1/hERG (human) (Q12809 whole entry): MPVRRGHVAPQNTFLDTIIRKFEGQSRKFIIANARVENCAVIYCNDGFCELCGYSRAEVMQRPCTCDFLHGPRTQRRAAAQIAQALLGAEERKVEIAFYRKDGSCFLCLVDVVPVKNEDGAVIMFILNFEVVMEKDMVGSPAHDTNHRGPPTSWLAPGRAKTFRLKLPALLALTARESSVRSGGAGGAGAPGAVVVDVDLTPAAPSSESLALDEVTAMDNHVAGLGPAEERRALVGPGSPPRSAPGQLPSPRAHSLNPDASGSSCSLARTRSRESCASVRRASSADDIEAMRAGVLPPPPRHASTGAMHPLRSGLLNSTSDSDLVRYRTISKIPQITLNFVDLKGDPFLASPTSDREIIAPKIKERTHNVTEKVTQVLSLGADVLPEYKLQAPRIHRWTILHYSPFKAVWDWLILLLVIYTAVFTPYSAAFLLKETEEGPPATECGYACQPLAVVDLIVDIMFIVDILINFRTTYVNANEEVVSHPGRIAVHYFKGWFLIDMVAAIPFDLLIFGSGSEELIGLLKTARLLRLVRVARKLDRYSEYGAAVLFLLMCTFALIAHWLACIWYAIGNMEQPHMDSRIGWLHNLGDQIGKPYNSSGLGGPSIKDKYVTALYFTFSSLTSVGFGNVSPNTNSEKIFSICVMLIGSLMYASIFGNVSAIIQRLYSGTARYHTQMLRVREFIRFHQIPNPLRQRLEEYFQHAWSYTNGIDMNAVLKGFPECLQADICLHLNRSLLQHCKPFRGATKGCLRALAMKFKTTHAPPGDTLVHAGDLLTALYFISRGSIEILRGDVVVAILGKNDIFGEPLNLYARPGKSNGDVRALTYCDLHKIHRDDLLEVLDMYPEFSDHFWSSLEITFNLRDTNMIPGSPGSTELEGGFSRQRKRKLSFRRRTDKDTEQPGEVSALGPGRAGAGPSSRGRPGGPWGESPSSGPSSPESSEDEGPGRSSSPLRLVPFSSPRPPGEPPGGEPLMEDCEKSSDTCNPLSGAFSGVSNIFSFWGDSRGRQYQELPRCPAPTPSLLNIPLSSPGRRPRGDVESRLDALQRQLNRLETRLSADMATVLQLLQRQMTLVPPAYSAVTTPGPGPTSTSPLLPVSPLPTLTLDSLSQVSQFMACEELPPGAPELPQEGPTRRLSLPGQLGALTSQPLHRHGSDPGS
Chain of hNav1.5 (human) (Q14524 whole entry): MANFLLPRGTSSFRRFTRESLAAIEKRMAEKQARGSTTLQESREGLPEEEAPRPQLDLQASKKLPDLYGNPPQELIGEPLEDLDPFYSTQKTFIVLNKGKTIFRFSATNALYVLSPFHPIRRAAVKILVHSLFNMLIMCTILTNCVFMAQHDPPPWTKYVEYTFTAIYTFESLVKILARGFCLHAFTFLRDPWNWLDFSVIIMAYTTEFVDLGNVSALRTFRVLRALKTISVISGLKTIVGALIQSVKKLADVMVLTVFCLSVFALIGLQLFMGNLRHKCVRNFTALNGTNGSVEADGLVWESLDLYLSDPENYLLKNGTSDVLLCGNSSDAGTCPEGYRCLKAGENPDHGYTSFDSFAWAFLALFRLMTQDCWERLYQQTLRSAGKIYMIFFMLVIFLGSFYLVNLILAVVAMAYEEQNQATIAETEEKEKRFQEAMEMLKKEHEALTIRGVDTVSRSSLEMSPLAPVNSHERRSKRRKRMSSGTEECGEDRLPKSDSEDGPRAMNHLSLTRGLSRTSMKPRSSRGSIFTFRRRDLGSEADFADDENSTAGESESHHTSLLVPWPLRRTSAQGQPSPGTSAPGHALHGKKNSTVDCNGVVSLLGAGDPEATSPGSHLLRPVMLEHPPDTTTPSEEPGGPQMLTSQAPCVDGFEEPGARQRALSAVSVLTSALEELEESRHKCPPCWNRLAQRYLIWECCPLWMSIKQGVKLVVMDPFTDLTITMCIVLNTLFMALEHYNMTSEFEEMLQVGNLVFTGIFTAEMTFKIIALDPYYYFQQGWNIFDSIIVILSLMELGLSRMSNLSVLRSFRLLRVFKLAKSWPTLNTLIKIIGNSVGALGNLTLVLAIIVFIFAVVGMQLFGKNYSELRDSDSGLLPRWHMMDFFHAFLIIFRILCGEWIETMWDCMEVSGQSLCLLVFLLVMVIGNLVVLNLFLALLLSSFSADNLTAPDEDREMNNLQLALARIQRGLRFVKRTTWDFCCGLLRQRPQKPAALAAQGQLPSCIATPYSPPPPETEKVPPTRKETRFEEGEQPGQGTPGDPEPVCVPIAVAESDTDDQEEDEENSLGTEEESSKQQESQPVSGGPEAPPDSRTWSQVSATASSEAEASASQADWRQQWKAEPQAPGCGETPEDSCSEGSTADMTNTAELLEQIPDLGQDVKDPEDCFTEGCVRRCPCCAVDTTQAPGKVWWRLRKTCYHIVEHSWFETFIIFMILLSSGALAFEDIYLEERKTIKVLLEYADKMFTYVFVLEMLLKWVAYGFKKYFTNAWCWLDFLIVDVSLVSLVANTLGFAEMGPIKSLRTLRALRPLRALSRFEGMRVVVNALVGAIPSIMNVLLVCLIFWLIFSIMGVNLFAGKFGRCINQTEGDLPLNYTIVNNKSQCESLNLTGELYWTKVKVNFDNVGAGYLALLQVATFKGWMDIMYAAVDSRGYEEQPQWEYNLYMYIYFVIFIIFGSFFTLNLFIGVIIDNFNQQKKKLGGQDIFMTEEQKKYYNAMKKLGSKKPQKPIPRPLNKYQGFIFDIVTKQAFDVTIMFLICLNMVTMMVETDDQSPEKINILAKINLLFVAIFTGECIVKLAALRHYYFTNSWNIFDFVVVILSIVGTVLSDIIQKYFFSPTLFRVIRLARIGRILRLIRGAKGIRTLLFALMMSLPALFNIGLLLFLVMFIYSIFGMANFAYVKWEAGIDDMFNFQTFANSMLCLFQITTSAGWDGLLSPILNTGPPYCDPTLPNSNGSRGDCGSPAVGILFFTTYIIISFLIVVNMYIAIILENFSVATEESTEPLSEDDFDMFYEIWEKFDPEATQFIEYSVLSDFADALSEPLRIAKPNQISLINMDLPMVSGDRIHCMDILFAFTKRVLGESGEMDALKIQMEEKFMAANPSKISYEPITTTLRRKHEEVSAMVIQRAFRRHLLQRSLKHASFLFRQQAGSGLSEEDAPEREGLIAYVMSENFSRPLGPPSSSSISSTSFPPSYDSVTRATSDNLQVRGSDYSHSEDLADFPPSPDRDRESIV

Take “Hi1a (recombinant, with non-native N-terminal serine) (peptide)”: in the assay with hKCNQ1/minK (human), the % inhibition of hKCNQ1/mink current, mean, 1 µM Hi1a turned out to be 0.17%; the % inhibition of hKCNQ1/mink current, n1, 1 µM Hi1a was 1.87%; the % inhibition of hKCNQ1/mink current, n2, 1 µM Hi1a was -0.67%; the % inhibition of hKCNQ1/mink current, n3, 1 µM Hi1a is -0.68%. In the assay with hKV11.1/hERG (human), the % inhibition of hERG current, mean, 1 µM Hi1a is -6.2%; the % inhibition of hERG current, n1, 1 µM Hi1a was -7.5%; the % inhibition of hERG current, n2, 1 µM Hi1a is 1.58%; the % inhibition of hERG current, n3, 1 µM Hi1a is -12.7%. Also, in the assay with hNav1.5 (human), the % inhibition of hNav1.5 current, mean, 1 µM Hi1a was 8.46%; the % inhibition of hNav1.5 current, n1, 1 µM Hi1a stood at 7.31%; the % inhibition of hNav1.5 current, n2, 1 µM Hi1a came out at 11%; the % inhibition of hNav1.5 current, n3, 1 µM Hi1a is 7.1%. Besides, in the assay with hNav1.5 (human), the % inhibition, hNav1.5 Late current antagonist assay, mean, 1 µM Hi1a was -12.4%; the % inhibition, hNav1.5 Late current antagonist assay, n1, 1 µM Hi1a was -9.74%; the % inhibition, hNav1.5 Late current antagonist assay, n2, 1 µM Hi1a is -13.9%; the % inhibition, hNav1.5 Late current antagonist assay, n3, 1 µM Hi1a is -13.4%. Also, in the assay with hCav1.2 (human), the % inhibition of hCav1.2 current, mean, 1 µM Hi1a amounted to 8.98%; the % inhibition of hCav1.2 current, n1, 1 µM Hi1a was found to be 2.79%; the % inhibition of hCav1.2 current, n2, 1 µM Hi1a is 13.2%; the % inhibition of hCav1.2 current, n3, 1 µM Hi1a worked out at 10.9%.
